Measurements taken from patent US20240075137A1 (COMPUGEN, published 2024).
Numbering of substitutions follows the chain as printed. Numbers in names are those of the source. Where two headings read alike, the source gives them in different places.

B1: CPA.9.103 (fab) (Fab, V domains shown)
VH: EVQLVETGGGLIQPGGSLRLSCAASGFTVSSNYMSWVRQAPGKGLEWVSVIYSGGSTYYADSVKGRFTISRDNSKNTLYLQMNSLRAEDTAVYYCARGARPNGQYPYWGQGTLVTVSS
VL: DIQLTQSPSFLSASVGDRVTITCRASHGIKSLFSWYQQKPGKAPKLLIYAASTLQTGVPSRFSGSASGTEFTLTISSLQPEDFATYYCLQLDSFPTWTFGQGTKVEIK
notes: variant of CPA.9.059 screened as fab
B2: CPA.9.103 (antibody, human IgG4 S228P, kappa, V domains shown)
VH: B1 VH
VL: DIQLTQSPSFLSASVGDRVTITCRASHGIKSLFSWYQQKPGKAPKLLIYAASTLQTGVPSRFSGSASGTEFTLTISSLQPEDFATYYCLQLDSFPTWTFGQGTKVEIKR
modifications: AF647 dye on the antibody in the FACS assay of FIG. 73
notes: fab form is m92; also called CPA.9.103.H4(S241P)
B3: CPA.9.101 (fab) (Fab, V domains shown)
VH: B1 VH with R100P, P101L, N102F
VL: B1 VL with L4M, F10S, G28A, K30A
notes: as for B1
B4: CHA.7.550 (antibody, V domains shown)
VH: QVQLQESGTELVKPGASVKLSCKASGYTFTSYWIHWVKQRPGQGLEWIGNINPSNGGTNYNEKFKSKAALTVDKSSSTAYMQLSSLTSEDSAVYYCARRGLPYFFDYWGQGTTLTVSS
VL: DIVMTQSQKFMSTSVGDRVSVTCKGSQNVGYNVAWYQQKPGQSPKALVYSASDRHSGVPDRFAGSGSGTDFTLTISNVQSEDLAEYFCQQYNSYPLTFGAGTKLELK
B5: CHA.7.548 (antibody, V domains shown)
VH: EVQLQQSGPELVKPGASVKISCKASGYTFTDYSMNWVKQSHGKSLEWIGDITPNNGSPNYNQKFKDKATLTVDKSSSTVYMELRSLTSEDSAVYYCASLFFDYWGHGTTLTVSS
VL: DIVMTQSPSSLSVSAGEKVTMSCKSSQSLLNSGNQKNYLAWYQQKPGQPPKLLIYGASTRDSGVPDRFTGSGSGTDFTLTITSVQAEDLAVYYCQNDHTYPYTFGGGTKLEIK
B6: CHA.9.547.1 (antibody, human IgG4 S228P, kappa, V domains shown)
VH: EVQLVESGGGLVQPGGSLRLSCAASGFTFSSYIMSWVRQAPGKGLEWVSTISGGGTNTYYADSVKGRFTISRDNSKNTLYLQMNSLRAEDTAVYYCAKWLLSYYAMDYWGQGTLVTVSS
VL: DIQMTQSPSSLSASVGDRVTITCRASQNINVWLTWYQQKPGKAPKLLIYKASNLHTGVPSRFSGSGSGTDFTLTISSLQPEDFATYYCQQGQSYPYTFGQGTKLEIKR
modifications: AF647 dye on the antibody in the FACS assay of FIG. 73
notes: also called CHA.9.547.1.H4(S241P)

Key:
cyno TIGIT on cells [1] = target: T1, cyno TIGIT on cells (cynomolgus macaque); assay: flow cytometry of fab; MFI on cyno TIGIT over-expressing Expi293 / MFI on parental Expi293
T1 construct: whole, on cells; also called Expi293 cyno TIGIT over-expressing cells

human TIGIT on cells = target: T2, human TIGIT on cells (human, UniProt Q495A1 22-141); assay: flow cytometry of fab; MFI on human TIGIT over-expressing Expi293 / MFI on parental Expi293
T2 construct: also called Expi293 human TIGIT over-expressing cells
T2 sequence: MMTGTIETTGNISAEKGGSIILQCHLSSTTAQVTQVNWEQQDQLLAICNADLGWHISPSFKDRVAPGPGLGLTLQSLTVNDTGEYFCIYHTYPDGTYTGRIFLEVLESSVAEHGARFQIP

[2] = target: T3, human TIGIT ECD with C-terminal polyhistidine tag (human, UniProt Q495A1 22-141); assay: SPR (ProteOn), Human TIGIT-His
T3 construct: in-house or Sino Biological; also called hTIGIT-HIS; human TIGIT-HIS
T3 sequence: T2 sequence

Mouse TIGIT-His = target: T4, Mouse TIGIT-His (mouse, UniProt P86176); assay: SPR (ProteOn), Mouse TIGIT-His
T4 construct: also called mouse TIGIT monomer (prepared in-house)
T4 sequence (soluble monomer with His tag, looked up): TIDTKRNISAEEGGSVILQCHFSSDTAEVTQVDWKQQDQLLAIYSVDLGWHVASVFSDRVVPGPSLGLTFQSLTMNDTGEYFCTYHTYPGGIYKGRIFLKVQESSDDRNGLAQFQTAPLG

cyno TIGIT on cells [3] = target: T1, cyno TIGIT on cells; assay: FACS titration of AF647-labelled mAb on cyno effector memory CD8+ T cells, Cyno Donor 1; isotype gMFI subtracted
cyno TIGIT on cells [4] = target: T1, cyno TIGIT on cells; assay: FACS titration of AF647-labelled mAb on cyno effector memory CD8+ T cells, Cyno Donor 3; isotype gMFI subtracted
Cyno TIGIT-His = target: T5, Cyno TIGIT-His; assay: SPR (ProteOn), Cyno TIGIT-His
T5 construct: also called cyno TIGIT monomer (prepared in-house); C-terminal HIS-tagged cyno TIGIT ECD recombinant protein

[5] = target: T6, cynomolgus PVRIG on cells (cynomolgus, UniProt A0A2K5WVV8 41-322); assay: FACS, expi cPVRIG over expi parental cells, 3.3ug/ml
T6 construct: whole, on cells; also called cPVRIG; expi cPVRIG cells
T6 sequence: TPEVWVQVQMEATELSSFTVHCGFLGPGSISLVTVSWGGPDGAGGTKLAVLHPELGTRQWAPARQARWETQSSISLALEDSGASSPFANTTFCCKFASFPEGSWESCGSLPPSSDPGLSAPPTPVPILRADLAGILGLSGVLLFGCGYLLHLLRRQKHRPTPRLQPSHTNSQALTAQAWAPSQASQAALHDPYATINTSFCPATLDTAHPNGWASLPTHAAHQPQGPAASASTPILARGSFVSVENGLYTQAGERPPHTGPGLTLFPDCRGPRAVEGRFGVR

human PVRIG on cells [6] = target: T7, human PVRIG on cells (human, UniProt Q6DKI7 1-326); assay: FACS, human PBMC, CD56 int. NK cells, 10ug/ml
T7 construct: whole, on cells; over-expressed on HEK cells or endogenous on Jurkat and CD8 T cells; also called hPVRIG; HEK hPVRIG cells
T7 sequence (looked up): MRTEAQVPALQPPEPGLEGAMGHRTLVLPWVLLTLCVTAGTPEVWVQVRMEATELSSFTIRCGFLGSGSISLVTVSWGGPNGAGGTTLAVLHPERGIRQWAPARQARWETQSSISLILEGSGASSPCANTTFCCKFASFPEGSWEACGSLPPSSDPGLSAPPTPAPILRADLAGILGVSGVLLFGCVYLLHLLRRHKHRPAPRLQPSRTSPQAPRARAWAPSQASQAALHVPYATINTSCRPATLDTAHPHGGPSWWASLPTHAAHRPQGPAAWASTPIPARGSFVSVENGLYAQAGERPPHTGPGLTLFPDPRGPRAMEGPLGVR

[7] = target: T8, PVRIG (FACS-based competition assay of FIGS. 7 and 15) (Homo sapiens, UniProt Q6DKI7); assay: FACS-based competition assay of PVRIG blocking; format and competitor not given
T8 construct: made because the format of the assay is only described in U.S. Ser. No. 15/048,967; also called human PVRIG
T8 sequence (receptor, looked up): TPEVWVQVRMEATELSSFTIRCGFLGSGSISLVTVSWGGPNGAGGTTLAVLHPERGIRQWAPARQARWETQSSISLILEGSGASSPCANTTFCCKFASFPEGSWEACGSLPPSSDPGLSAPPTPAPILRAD

human PVRIG on cells [8] = target: T7, human PVRIG on cells; assay: FACS, HEK hPVRIG over HEK parental cells, 3.3ug/ml
human PVRIG on cells [9] = target: T7, human PVRIG on cells; assay: FACS, human PBMC, CD8+ T cells, 10ug/ml
human PVRIG on cells [10] = target: T7, human PVRIG on cells; assay: FACS, human PBMC, CD56 int. NK cells, 10ug/ml; remark: listed apart in the source
[11] = target: T8, PVRIG (FACS-based competition assay of …); assay: FACS-based competition assay of PVRIG blocking; format and competitor not given; remark: listed apart in the source
human PVRIG on cells [12] = target: T7, human PVRIG on cells; assay: FACS, Jurkat cells, relative to control, 3.3ug/ml
human PVRIG on cells [13] = target: T7, human PVRIG on cells; assay: FACS, HEK hPVRIG cells (HEK OE)
[14] = target: T6, cynomolgus PVRIG on cells; assay: FACS, expi cPVRIG over expi parental cells, 3.3ug/ml; remark: listed apart in the source
human PVRIG on cells [15] = target: T7, human PVRIG on cells; assay: FACS, human PBMC, CD8+ T cells, 10ug/ml; remark: listed apart in the source
[16] = target: T6, cynomolgus PVRIG on cells; assay: FACS, cyno PBMC, CD8+ T cells, 10ug/ml
[17] = target: T6, cynomolgus PVRIG on cells; assay: FACS, cyno PBMC, CD8+ T cells, 10ug/ml; remark: listed apart in the source
[18] = target: T6, cynomolgus PVRIG on cells; assay: FACS, cyno PBMC, NK cells, 10ug/ml
[19] = target: T6, cynomolgus PVRIG on cells; assay: FACS, cyno PBMC, NK cells, 10ug/ml; remark: listed apart in the source

T5 sequence (ECD with C-terminal His tag, as listed by the source): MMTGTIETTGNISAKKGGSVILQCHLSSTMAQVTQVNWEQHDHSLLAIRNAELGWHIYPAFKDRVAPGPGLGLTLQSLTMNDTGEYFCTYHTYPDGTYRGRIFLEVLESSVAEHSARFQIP

| Binder | MFIr (OE/Par) cTIGIT (cyno TIGIT on cells [1]) | MFIr (OE/Par) hTIGIT (human TIGIT on cells) | Kd (cyno TIGIT on cells [3]) [nM] | Kd (cyno TIGIT on cells [4]) [nM] | Kd (Cyno TIGIT-His) [nM] | gMFIr Expi cyno OE/par [5] | gMFIr Human CD56 int. NK (human PVRIG on cells [6]) | IC50 [7] [nM] | gMFIr HEK OE/par (human PVRIG on cells [8]) | gMFIr Human CD8+ T cells (human PVRIG on cells [9]) | gMFIr Human CD56 int. NK (human PVRIG on cells [10]) | IC50 [11] [nM] | gMFIr Jurkat (human PVRIG on cells [12]) | EC50 (human PVRIG on cells [13]) [nM] | gMFIr Expi cyno OE/par [14] | gMFIr Human CD8+ T cells (human PVRIG on cells [15]) | further results |
| --- | --- | --- | --- | --- | --- | --- | --- | --- | --- | --- | --- | --- | --- | --- | --- | --- | --- |
| B1 | 30 | 95 |  |  |  |  |  |  |  |  |  |  |  |  |  |  |  |
| B2 |  |  | 31 | 25 | 0.337 |  |  |  |  |  |  |  |  |  |  |  | Kd [2]: 0.0064 nM; Kd (Mouse TIGIT-His): 25 nM |
| B3 | 22 | 130 |  |  |  |  |  |  |  |  |  |  |  |  |  |  |  |
| B4 |  |  |  |  |  | 0.9 | 1.6 | 58.3 | 27.7 | 1.29 | 1.6 | 58.3 | 2.1 | 1.34 | 0.9 | 1.29 |  |
| B5 |  |  |  |  |  | 4.25 | 3.15 | 19 | 45.3 | 3.35 | 3.15 | 19 | 7.37 | 0.27 | 4.25 | 3.35 | gMFIr Cyno CD8+ T cells [16]: 1.09; gMFIr Cyno CD8+ T cells [17]: 1.09; gMFIr Cyno NK cells [18]: 1.18; gMFIr Cyno NK cells [19]: 1.18 |
| B6 |  |  | 25 | 19 | 1.13 |  |  |  |  |  |  |  |  |  |  |  | binding result (Mouse TIGIT-His): no binding (tested: not printed) |
